Laboratory results as given in article PMC10117725, “From an Hsp90 - binding protein to a peptide drug” (microLife, 2022).

target: T1, recombinant Hsp90α (human, UniProt P07900 1-732); experiment: far-Western, overlay or dot blot; details: both partners purified
T1 construct: source: bought: Abcam (recombinant)

Binder | binding result
NTRTAKGHYFVTTFYRNG (source: synthetic peptide (Apeptide, Shanghai; purity >95%)) [L10] | binds
TAKGHYFVTTFYRNG (source: synthetic peptide (Apeptide, Shanghai; purity >95%)) [L15] | binds
GHYFVTTFY (source: synthetic peptide (Apeptide, Shanghai; purity >95%)) [L13] | binds
L26 (source: synthetic peptide (Apeptide, Shanghai; purity >95%)) peptide: DEIVKELRSRYNISTEKSPILKMHIDGDLKGSSVGYRKLEIDFSKRENSKLSVIEFLSYKPAKK | binds
NYKIEMKNNKIILLD (source: synthetic peptide (Apeptide, Shanghai; purity >95%)) [L16] | binds
ENFKFFGQYANLKELRK (source: synthetic peptide (Apeptide, Shanghai; purity >95%)) [L21] | binds
